B1: MetAP2(1–169): truncated MetAP2, amino acids 1–169, control, expressed from retrovirus (protein, UniProt P50579 1-169, looked up, fragment)
chain: MAGVEEVAASGSHLNGDLDPDDREEGAASTAEEAAKKKRRKKKKSKGPSAAGEQEPDKESGASVDEVARQLERSALEDKERDEDDEDGDGDGDGATGKKKKKKKKKRGPKVQTDPPSVPICDLYPNGVFPKGQECEYPPTQDGRTAAWRTTSEEKKALDQASEEIWNDF
B2: MetAP2(1–229): truncated form of MetAP2, amino acids 1–229, expressed from retrovirus (protein, UniProt P50579 1-229, looked up, fragment)
chain: MAGVEEVAASGSHLNGDLDPDDREEGAASTAEEAAKKKRRKKKKSKGPSAAGEQEPDKESGASVDEVARQLERSALEDKERDEDDEDGDGDGDGATGKKKKKKKKKRGPKVQTDPPSVPICDLYPNGVFPKGQECEYPPTQDGRTAAWRTTSEEKKALDQASEEIWNDFREAAEAHRQVRKYVMSWIKPGMTMIEICEKLEDCSRKLIKENGLNAGLAFPTGCSLNNCA
B3: ECFP-MetAP2: ECFP-tagged full-length MetAP2 expressed in HeLa cells (protein)
chain: AGVEQAASFGGHLNGDLDPDDREEGTSSTAEEAAKKKRRKKKKGKGAVSAVQQELDKESGALVDEVAKQLESQALEEKERDDDDEDGDGDADGATGKKKKKKKKKRGPKVQTDPPSVPICDLYPNGVFPKGQECEYPPTQDGRTAAWRTTSEEKKALDQASEEIWNDFREAAEAHRQVRKYVMSWIKPGMTMIEICEKLEDCSRKLIKENGLNAGLAFPTGCSLNNCAAHYTPNAGDTTVLQYDDICKIDFGTHISGRIIDCAFTVTFNPKYDILLTAVKDATNTGIKCAGIDVRLCDVGEAIQEVMESYEVEIDGKTYQVKPIRNLNGHSIGPYRIHAGKTVPIVKGGEATRMEEGEVYAIETFGSTGKGVVHDDMECSHYMKNFDVGHVPIRLPRTKHLLNVINENFGTLAFCRRWLDRLGESKYLMALKNLCDLGIVDPYPPLCDIKGSYTAQFEHTILLRPTCKEVVSRGDDY
modifications: left off: ECFP, end not stated, kept
notes: ECFP-tagged full-length MetAP2 expressed in HeLa cells

Tests used:
[1] = tested on: MSS31 cells; assay: DNA synthesis (BrdU uptake ELISA) in retrovirally infected cells; type: cell-based, mouse; settings: retroviral overexpression, 10% FBS and 10 μmol/l BrdU for 6 hours, OD450
Experimental: cDNA fragments encoding amino acids 1–169 [MetAP2(1–169)] or 1–229 [MetAP2(1–229)] of MetAP2 were PCR amplified and inserted into the multicloning site (SalI/NotI site) of the pRX-puro vector (Supplementary Figure S1).
DNA synthesis was quantified by measuring bromodeoxyuridine (BrdU) incorporation using the Cell Proliferation ELISA BrdU kit (Roche Applied Science, Penzberg, Upper Bavaria, Germany). MSS31 cells cultured for 24 hours in a medium containing 0.2% serum were stimulated with a medium containing 10% FBS and 10 μmol/l BrdU for 6 hours. The cells were harvested and BrdU uptake was measured according to the manufacturer’s protocol. Briefly, the cells were fixed, denatured, and incubated with the monoclonal anti-BrdU-peroxidase antibody. The immune complexes were then detected by the subsequent reaction with tetramethyl-benzidine. The reaction product was quantified by measuring the absorbance (OD450) using a scanning multiwell spectrophotometer.

[2] = tested on: S100A4; assay: FRET acceptor-photobleaching analysis in live HeLa cells; type: binding; settings: ECFP fusion cotransfected with EYFP-S100A4, acceptor photobleaching, n = 8–11, **P < 0.01, ***P < 0.001

Molecule | serum-induced DNA synthesis [1] | FRET efficiency with EYFP-S100A4 vs negative controls [2]
B1 | but not MetAP2(1–169), resulted in a marked suppression of serum-induced DNA synthesis | –
B2 | resulted in a marked suppression of serum-induced DNA synthesis | –
B3 | – | significantly higher than that of the negative controls

Source: article PMC4445002, “Efficient inhibition of tumor angiogenesis and growth by a synthetic peptide blocking S100A4-methionine aminopeptidase 2 interaction” (Molecular Therapy. Methods & Clinical Development, 2015)
